Target: porcine brain tubulin (microtubules) (porcine)
Test: microtubule-capping assay with TIRF microscopy; Taxol-, docetaxel- or GMPCPP-stabilized microtubules held on the coverslip through biotin–neutravidin; γ-TuC (GCP3–GFP) in solution; 5 µM tubulin, 50 mM KCl, MRB80, 30 °C; capped if γ-TuC stayed bound for at least 2 min

- capping efficiency (percent of minus ends capped by γ-TuC): 30 to 60%
Substance: γ-tubulin-containing complexes (complete and incomplete γ-TuRC) purified using GCP3–GFP–SII (from UniProt Q96CW5 1-907; Q9BSJ2 1-902; Q9UGJ1 1-667; Q96RT8 1-1024; Q96RT7 1-1819; P23258 1-451)

Reference: paper PMC10940162
